Data on nine molecules can be found in patent US12275759B2, “Hepatitis B virus replication inhibitor and pharmaceutical composition for treating hepatitis B comprising the same” (RIKEN, priority 2018, dated 2025).

Format in all cases: cell-based, hepatitis B virus
Assay [1] relates to HBV replication. The assay can be described thus: system for evaluating HBV replication activity (reporter (−) DNA quantitative PCR) in HeLa cells, with wild type HBc. The note with it: GLS4 0.08 to 5 μM, HBc-WT in the system; FIG. 13.
Assay [2] deals with HBV replication by HBc-T33N. The assay can be described thus: system for evaluating HBV replication activity in HeLa cells with HBc-T33N in place of HBc-WT. The note with it: GLS4 0.08 to 5 μM, FIG. 13. The method, then: The T residue at position 33 was substituted with an N residue (denoted as T33N) by a site-directed mutagenesis method using PrimeSTAR Mutagenesis Basal Kit (Takara Bio Inc.) using the full length HBc expression vector (pCI-HBc) of genotype C used in Example 1 as the template. The T33N mutant of the full length HBc having introduced the point mutation is denoted as HBc-T33N.
The measurement of the HBV replication activity by HBc-WT or HBc-T33N was performed in accordance with the method described in Example 1 using HBc-WT or HBc-T33N as HBc comprised in the system for evaluating HBV replication described in Example 1 in the presence of GLS4 at a concentration of 0 μM, 0.08 μM, 0.16 μM, 0.31 μM, 0.63 μM, 1.25 μM, 2.5 μM, or 5 μM. Based on the obtained measurement value of HBV replication activity (amount of reverse transcribed HBV DNA), the efficiency for inhibition of HBV replication (%) was calculated.
The evaluation of the inhibitory effect on HBV replication of the spike region ΔHBc(α1-4b) was in accordance with the method described in Example 2. However, in this Example, HBc-WT or HBc-T33N was used as the HBc comprised in the system for evaluating HBV replication described in Example 2.

The subject of assay [3] is HBV replication. Put plainly: system for evaluating HBV replication activity (reporter (−) DNA quantitative PCR) in HeLa cells, with wild type HBc. The note with it: for inhibitory effect on HBV replication: pCI-HBc:pCI-ΔHBc = 9:26, 24 hours culture, amount of reporter (−) DNA vs positive control (empty vector), FIG. 7, 9, 11A; for inhibitory activity on HBV replication compared to wild type pCI-ΔHBc(α1-4b): single ratio as in Example 1, FIG. 11A. An excerpt: The effect of each of the aforementioned ΔHBc expression vector (pCI-ΔHBc) on HBV replication was examined using the system for evaluating HBV replication activity described in WO2018/030534 developed by the present inventors.
Specifically, the system for evaluating HBV replication activity consisting of the vector for evaluating HBV replication activity (pBB-intron) encoding the reporter pgRNA shown in FIG. 5A, the HBV-P expression vector (pCI—HBV-Pol) shown in FIG. 5B, the HBc expression vector (pCI-HBc) shown in FIG. 5C, and the HBx expression vector (pCI-HBx) shown in FIG. 5D was introduced into HeLa cells together with each pCI-ΔHBc. The introduction ratio of the respective expression vectors was pBB-intron: pCI-HBc: pCI—HBV-Pol: pCI-HBx: pCI-ΔHBc=13:9:3:1:26. According to this ratio, the amount of ΔHBc is about three times (2.89 times) as much as that of the wild type HBc functioning in HBV replication. As a positive control, an empty vector (pCI) was introduced at the same ratio as pCI-ΔHBc. For gene introduction into HeLa cells, the electroporation method was used. Using an Electroporator Nepa21 (Nepa Gene Co., Ltd.) 10 μg of DNA was introduced into approximately 1×10^6 cells under the condition of 125 V/2.5 ms pulse length. The HeLa cells after gene introduction were cultured in DMEM to which 2 mL of 10% FBS was added in the presence of 5% CO2 at 37° C. for 24 hours.
When the vector for evaluating HBV replication activity (pBB-intron) described above is introduced into HeLa cells, pre-mRNA shown in FIG. 6A is synthesized by RNA-pol II in HeLa cells, then an intron comprised in the reporter sequence of pBB-intron is immediately removed by pre-mRNA splicing in HeLa cells. […] The amount of this reporter (−) DNA reflects the replication activity and replication amount of HBV. Therefore, when DNA is extracted from the cells in which the system for evaluating HBV replication activity and pCI-ΔHBc are introduced, the amount thereof is quantified with a primer set specific to the reporter (−) DNA, and then compared with the amount of the positive control, the effect of pCI-ΔHBc on the HBV replication can be evaluated.
DNA was extracted from HeLa cells after culture using DNeasy Mini (Qiagen N.V.). Then, quantitative PCR was performed using a primer set specific to the reporter (−) DNA after reverse transcription. For primers, a forward primer (Primer F) consisting of the base sequence shown in SEQ ID NO: 23, and a reverse primer (Primer R) consisting of the base sequence shown in SEQ ID NO: 24 were used. […] Therefore, it functions as a primer only when there is a reporter (−) DNA having the reporter sequence from which the intron has been removed, and the DNA fragment of 131 bases is amplified.
The basic procedures were in accordance with Example 1. As pCI-ΔHBc to be introduced into HeLa cells together with the system for evaluating HBV replication activity, only pCI-ΔHBc(α1-4b) was used. The introduction ratio of the respective expression vectors was set such that the ratio of pCI-HBc: pCI—HBV-Pol: pCI-HBx was 9:3:1, and the ratio of pBB-intron: pCI-HBc/pCI—HBV-Pol/pCI-HBx was 1:1. Then, only the system for evaluating HBV replication activity in which the ratio of pCI-ΔHBc(α1-4b): pBB-intron/pCI-HBc/pCI—HBV-Pol/pCI-HBx was adjusted to 1:26, 3:26, 9:26, or 26:26, was introduced as a positive control. In each sample, an empty vector (pCI) was used for adjustment so that the amount of the vector to be introduced is the same.

The subject of a further assay is full length HBc. Put plainly: Western blotting under non-reducing conditions of HBc dimer and multimer formation in HeLa cells. The note with it: PA-tagged ΔHBc coexpressed with full length HBc in HeLa cells, antibody #511; FIG. 12A. The protocol: Each of the expression vectors of the wild type full length HBc (HBc-WT), and mutant full length HBc (HBc-F23A and HBc-L42A) was introduced into HeLa cells, which were cultured for 24 hours. Then proteins were extracted with a WB lysis buffer (1% Triton, 25 mM Tris pH 7.4, 150 mM NaCl). After addition of CuSO4 (100 μM), the protein extract was incubated at room temperature for 20 min, and neutralized with 1 mM EDTA, to which α13-ME-free SDS-PAGE sample buffer was added. Then SDS-PAGE was performed using a 10 to 20% polyacrylamide gel (SuperSep™ Ace, FUJIFILM Wako Pure Chemical Corporation). After the electrophoresis, the proteins were transferred to a PVDF membrane using a semi-dry blotter, and Western blotting was performed using a mouse anti-human HBc monoclonal antibody (#511).
The basic procedures were in accordance with the method described in Example 4. pCI-ΔHBc(α1-4b)-PA alone, or pCI-ΔHBc(α1-4b)-PA and pCI-ΔHBc(α1-4b)-F23A-PA at a ratio of 1:1 were introduced into HeLa cells.

`CCOC(=O)C1=C(CN2CCOCC2)NC(c2nccs2)=NC1c1ccc(F)cc1Br` (stereo not drawn) [GLS4]: the “inhibitory effect on HBV replication by HBc-WT (efficiency of inhibition)” value in the assay on HBV replication [1] is reported as “inhibited HBV replication by HBc-WT in a concentration-dependent manner”. Further, the “inhibitory effect on HBV replication by HBc-T33N (efficiency of inhibition)” value in assay [2] was “did not exhibit inhibitory effect on HBV replication by HBc-T33N”. “α1-2b (MDIDPYKEFGASVELLSFLPSDFFPSIRDLLDTASALYREALESPEHCS)”: the “inhibitory effect on HBV replication” value with HBV replication [3] (HeLa cells) is reported as “inhibitory activity on HBV replication was lost”. In the case of “α4ab (MSNLEDPASRELVVSYVNVNMGLKIRQLLWFHISCLTFG)”, the “inhibitory effect on HBV replication” value in the assay with HBV replication [3] (HeLa cells) is on record as “inhibitory activity on HBV replication was lost”.

B1: α2-4b (protein)
chain: MFLPSDFFPSIRDLLDTASALYREALESPEHCSPHHTALRQAILCWGELMNLATWVGSNLEDPASRELVVSYVNVNMGLKIRQLLWFHISCLTFG
For the molecule B1, in the assay with HBV replication [3] (HeLa cells), the “inhibitory effect on HBV replication” value is “inhibitory activity on HBV replication was lost”.

B2: α3-4b (protein)
chain: MSPEHCSPHHTALRQAILCWGELMNLATWVGSNLEDPASRELVVSYVNVNMGLKIRQLLWFHISCLTFG
With B2, the “inhibitory effect on HBV replication” value with HBV replication [3] (HeLa cells) is “inhibitory activity on HBV replication was lost”.

B3: ΔHBc(α1-4b)-F23A (protein)
chain: MDIDPYKEFGASVELLSFLPSDAFPSIRDLLDTASALYREALESPEHCSPHHTALRQAILCWGELMNLATWVGSNLEDPASRELVVSYVNVNMGLKIRQLLWFHISCLTFG
For the molecule B3, the “dose-dependent inhibition of HBV replication” value in the assay on HBV replication [3] (HeLa cells, HBc-WT, ΔHBc/WT-HBc expression vector ratio 1/9, 3/9, 9/9, 26/9, FIG. 8, 11B, 14 left) is “inhibited HBV replication depending on its expression level”. Moreover, in the assay with HBV replication [3] (HeLa cells), the “inhibitory effect on HBV replication” value is recorded as “inhibitory effect on HBV replication activity was maintained” and the “inhibitory activity on HBV replication compared to wild type pCI-ΔHBc(α1-4b)” value is on record as “more strongly inhibited than in the cells having introduced the wild type pCI-ΔHBc(α1-4b)”. In addition, the “inhibitory activity on HBV replication compared to ΔHBc(α1-4b), dose series” value in the assay with HBV replication [3] (plasmids serially diluted with empty vector as in Example 2, FIG. 11B) is reported as “stronger inhibitory activity on HBV replication than ΔHBc(α1-4b)”. For the same molecule, the “effect on multimer formation of the full length HBc” value in the assay on full length HBc is on record as “inhibited the normal multimer formation of the full length HBc”.

B4: ΔHBc(α1-4b)-L42A (protein)
chain: MDIDPYKEFGASVELLSFLPSDFFPSIRDLLDTASALYREAAESPEHCSPHHTALRQAILCWGELMNLATWVGSNLEDPASRELVVSYVNVNMGLKIRQLLWFHISCLTFG
With B4, in the assay on HBV replication [3] (HeLa cells), the “inhibitory effect on HBV replication” value was “inhibitory effect on HBV replication activity was maintained” and the “inhibitory activity on HBV replication compared to wild type pCI-ΔHBc(α1-4b)” value is listed as “reduced compared to the wild type pCI-ΔHBc(α1-4b)”.

B5: HR-RDBD (protein)
chain: MGRETVLEYLVSFGVWIRTPPAYRPPNAPILSTLPETTVVRRRGRSPRRRTPSPRRRRSQSPRRRRSQSRESQC
With B5, in the assay with HBV replication [3] (HeLa cells), the “inhibitory effect on HBV replication” value was “did not show the inhibitory activity on HBV replication”.

B6: α1-4a (protein)
chain: MDIDPYKEFGASVELLSFLPSDFFPSIRDLLDTASALYREALESPEHCSPHHTALRQAILCWGELMNLATWVGSNLEDPASRELVVSYVNV
For B6, the “inhibitory effect on HBV replication” value in the assay on HBV replication [3] (HeLa cells) is reported as “inhibitory activity on HBV replication was lost”.
